Data reported in publication PMC10388275 (Haematologica, 2023).

Molecular target: rmSiglec1-mFc (mouse, UniProt Q62230 20-1639)
Assay: SPR

Chain of rmSiglec1-mFc (Q62230 20-1639): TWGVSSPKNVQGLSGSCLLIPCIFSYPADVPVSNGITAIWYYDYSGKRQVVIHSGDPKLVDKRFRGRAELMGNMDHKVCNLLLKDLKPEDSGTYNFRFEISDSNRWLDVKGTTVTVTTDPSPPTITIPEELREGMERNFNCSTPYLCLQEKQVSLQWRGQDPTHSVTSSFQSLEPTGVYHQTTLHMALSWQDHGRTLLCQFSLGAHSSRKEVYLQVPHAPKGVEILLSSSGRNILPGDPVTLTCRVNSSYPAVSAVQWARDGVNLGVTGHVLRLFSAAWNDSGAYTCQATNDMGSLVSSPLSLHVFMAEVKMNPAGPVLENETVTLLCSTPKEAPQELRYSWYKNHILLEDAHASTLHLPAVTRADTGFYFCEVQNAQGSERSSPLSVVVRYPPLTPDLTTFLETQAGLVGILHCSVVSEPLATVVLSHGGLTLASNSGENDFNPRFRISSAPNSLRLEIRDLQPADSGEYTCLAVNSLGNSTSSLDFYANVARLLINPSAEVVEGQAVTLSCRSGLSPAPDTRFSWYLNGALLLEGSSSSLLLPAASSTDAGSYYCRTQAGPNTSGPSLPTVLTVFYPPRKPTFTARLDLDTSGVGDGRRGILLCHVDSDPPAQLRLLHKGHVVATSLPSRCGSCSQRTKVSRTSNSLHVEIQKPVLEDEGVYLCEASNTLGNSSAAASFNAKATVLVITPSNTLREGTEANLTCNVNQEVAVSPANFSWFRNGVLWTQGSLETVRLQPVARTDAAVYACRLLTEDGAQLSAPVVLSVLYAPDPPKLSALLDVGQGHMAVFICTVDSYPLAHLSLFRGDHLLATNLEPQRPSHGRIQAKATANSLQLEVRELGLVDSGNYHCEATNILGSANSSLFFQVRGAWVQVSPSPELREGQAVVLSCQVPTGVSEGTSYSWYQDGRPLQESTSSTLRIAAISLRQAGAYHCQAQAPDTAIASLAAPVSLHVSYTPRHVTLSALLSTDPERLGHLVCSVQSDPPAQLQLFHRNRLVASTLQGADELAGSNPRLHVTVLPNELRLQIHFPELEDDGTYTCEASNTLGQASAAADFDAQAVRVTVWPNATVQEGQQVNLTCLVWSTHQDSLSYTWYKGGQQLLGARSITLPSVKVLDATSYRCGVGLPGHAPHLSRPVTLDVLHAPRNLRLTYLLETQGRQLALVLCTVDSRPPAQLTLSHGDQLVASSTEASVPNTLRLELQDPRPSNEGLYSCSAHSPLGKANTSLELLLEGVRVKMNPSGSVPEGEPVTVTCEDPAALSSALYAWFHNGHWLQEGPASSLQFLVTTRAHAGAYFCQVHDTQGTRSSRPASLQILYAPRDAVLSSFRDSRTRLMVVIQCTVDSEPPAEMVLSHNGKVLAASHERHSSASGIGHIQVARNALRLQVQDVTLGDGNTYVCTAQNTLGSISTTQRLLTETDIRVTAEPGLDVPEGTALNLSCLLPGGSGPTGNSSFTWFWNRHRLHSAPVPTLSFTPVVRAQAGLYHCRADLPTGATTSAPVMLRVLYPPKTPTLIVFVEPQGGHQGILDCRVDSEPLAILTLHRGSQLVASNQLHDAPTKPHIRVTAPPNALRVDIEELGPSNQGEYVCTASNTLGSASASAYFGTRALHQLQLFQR

Kd: 107 nM
B1: rmCD43-hFc (Fc fusion, mouse, UniProt P15702 20-248, looked up)
chain: DSLQRTTMLPSTPHITAPSTSEAQNASPSVSVGSGTVDSKETISPWGQTTIPVSLTPLETTELSSLETSAGASMSTPVPEPTASQEVSSKTSALLPEPSNVASDPPVTAANPVTDGPAANPVTDGTAASTSISKGTSAPPTTVTTSSNETSGPSVATTVSSKTSGPPVTTATGSLGPSSEMHGLPATTATSSVESSSVARGTSVSSRKTSTTSTQDPITTRSPSQESSG
